From patent US7342091B2, “Soluble cyclic analogues of β amyloid peptide” (Fraunhofer-Gesellschaf zur Forderung der angewandten …, priority 2001, dated 2008)
Bridges are numbered along the chain shown (N, C = ends). Where no end group is shown, it is not given here.

What was measured:
[1] = Testing of fibril formation by electron microscopy (EM); format: physicochemical; settings: 450 μM solution in 10 mM phosphate buffer, 150 mM NaCl, 30% acetonitrile, pH 5.5; for fibril formation (EM): after three days incubation
Method: (§1) The physicochemical properties of cβ-AP were investigated by FT-IR (Fourier-transform infrared spectrometry) and CD (circular dichroism spectropolarimetry). EM (electron microscopy) and AFM (atomic force microscopy) were used to test the properties of fibrils of cβ-AP128. In the EM studies, 450 μM solutions of cβ-AP128 or β-AP (1-28) (SEQ ID NO: 2) or [Lys^17, Asp^21] β-AP(1-28) (SEQ ID NO: 5) in 10 mM phosphate buffer, 150 mM NaCl and 30% acetonitrile, pH 5.5 were initially incubated for several days and tested for fibril formation.

[2] = FT-IR of aged peptide solutions/suspensions (β-pleated sheet conformation); format: physicochemical; settings: 450 μM solutions/suspensions, 10 mM phosphate buffer, 150 mM NaCl, 30% acetonitrile, pH 5.5
Method: as §1

[3] = CD of peptide alone (β-pleated sheet formation and precipitation); format: physicochemical; settings: 10 mM phosphate buffer, 150 mM NaCl, 30% acetonitrile, pH 5.5
Method: (§2) The effect of cβ-AP128 (SEQ ID NO: 20) on the aggregation and fibril formation of β-AP (1-28) was tested by CD and EM. A solution of 450 μM β-AP (1-28) (SEQ ID NO: […]) and cβ-AP128 (SEQ ID NO: […]) in 10 mM phosphate buffer, 150 mM NaCl and 30% acetonitrile, pH 5.5, was incubated for several days and tested for fibril formation by EM (FIGS. 2A and 2B).

β-AP (1-28) = target: T1, β-AP (1-28) (Homo sapiens, UniProt P05067); assay: Inhibition of the aggregation and fibril formation of β-AP (1-28) by cβ-AP128, tested by CD and EM; format: biochemical; settings: 450 μM β-AP (1-28) and cβ-AP128, 10 mM phosphate buffer, 150 mM NaCl, 30% acetonitrile, pH 5.5
T1 construct: made in house; host or cells: chemical solid-phase peptide synthesis (Boc/Bzl on PAM resin), no expression host
Method: as §2

T1 sequence (P05067 672-699 limits assumed): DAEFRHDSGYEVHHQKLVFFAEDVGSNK

Row | time without changes of the CD spectra of the mixture with β-AP (1-28) (β-AP (1-28)) | Substance | fibril formation (EM) [1] | conformation by FT-IR after aging [2] | fate after β-pleated sheet formation [3] | incubation time over which no fibrils were formed (EM) [1]
1 |  | [Lys^17, Asp^21] β-AP (1-28) | completely fibrillated | β-pleated sheet conformation | precipitated out as insoluble amyloid | 
2 |  | β-AP (1-28) | completely fibrillated | β-pleated sheet conformation | precipitated out as insoluble amyloid | 
3 | more than 1 month | cyclo^17,21 [Lys^17, Asp^21] β-AP (1 to 28) (DAEFRHDSGYEVHHQKKVFFDEDVGSNK; lactam 17-21; listed as Homo sapiens) [cβ-AP128, β-AP (1-28) derivative with lactam bridge between side chains of Lys17 and Asp21] |  | prevents the β-pleated sheet conformation |  | more than 30 days
